# Experimental data published in US20120258539A1 (TEMPLE UNIVERSITY OF THE COMMONWEALTH OF HIGHER EDUCATION …, published 2012).
# B1: endogenous IKK1 in MCF7 cells (enzyme, UniProt O15111 1-745, looked up)
# chain: MERPPGLRPGAGGPWEMRERLGTGGFGNVCLYQHRELDLKIAIKSCRLELSTKNRERWCHEIQIMKKLNHANVVKACDVPEELNILIHDVPLLAMEYCSGGDLRKLLNKPENCCGLKESQILSLLSDIGSGIRYLHENKIIHRDLKPENIVLQDVGGKIIHKIIDLGYAKDVDQGSLCTSFVGTLQYLAPELFENKPYTATVDYWSFGTMVFECIAGYRPFLHHLQPFTWHEKIKKKDPKCIFACEEMSGEVRFSSHLPQPNSLCSLVVEPMENWLQLMLNWDPQQRGGPVDLTLKQPRCFVLMDHILNLKIVHILNMTSAKIISFLLPPDESLHSLQSRIERETGINTGSQELLSETGISLDPRKPASQCVLDGVRGCDSYMVYLFDKSKTVYEGPFASRSLSDCVNYIVQDSKIQLPIIQLRKVWAEAVHYVSGLKEDYSRLFQGQRAAMLSLLRYNANLTKMKNTLISASQQLKAKLEFFHKSIQLDLERYSEQMTYGISSEKMLKAWKEMEEKAIHYAEVGVIGYLEDQIMSLHAEIMELQKSPYGRRQGDLMESLEQRAIDLYKQLKHRPSDHSYSDSTEMVKIIVHTVQSQDRVLKELFGHLSKLLGCKQKIIDLLPKVEVALSNIKEADNTVMFMQGKRQKEIWHLLKIACTQSSARSLVGSSLEGAVTPQTSAWLPPTSAEHDHSLSCVVTPQDGETSAQMIEENLNCLGHLSTIIHEANEEQGNSMMNLDWSWLTE
# notes: Endogenous protein in cell lysate
# Target: T1, endogenous NIBP (NIK and IKK2 Binding Protein) in MCF7 cells (human (MCF7 cells; species not printed …, UniProt Q96Q05 1-1148, limits assumed)
# T1 construct: Immunoprecipitated from whole cell lysate with anti-NIBP antibody
# Assay: co-immunoprecipitation with anti-NIBP antibody from MCF7 lysate, immunoblot anti-IKK1/2 and anti-IKK1
# From the text: Endogenous NIBP interacts with endogenous IKK2 in breast cancer cells. NIBP association with IKK2, but not IKK1, occurred in MCF7 cells. The level of IKK1 was confirmed by immunoblotting of the same blot (without stripping) with a specific anti-IKK1 antibody. The IKK2 co-immunoprecipitated with NIBP was phosphorylated as shown by the band shift compared to the input and the immunoblotting with anti-phospho IKK1/2(Ser-177/181) antibody (FIG. 4).
# T1 sequence (Q96Q05 whole entry): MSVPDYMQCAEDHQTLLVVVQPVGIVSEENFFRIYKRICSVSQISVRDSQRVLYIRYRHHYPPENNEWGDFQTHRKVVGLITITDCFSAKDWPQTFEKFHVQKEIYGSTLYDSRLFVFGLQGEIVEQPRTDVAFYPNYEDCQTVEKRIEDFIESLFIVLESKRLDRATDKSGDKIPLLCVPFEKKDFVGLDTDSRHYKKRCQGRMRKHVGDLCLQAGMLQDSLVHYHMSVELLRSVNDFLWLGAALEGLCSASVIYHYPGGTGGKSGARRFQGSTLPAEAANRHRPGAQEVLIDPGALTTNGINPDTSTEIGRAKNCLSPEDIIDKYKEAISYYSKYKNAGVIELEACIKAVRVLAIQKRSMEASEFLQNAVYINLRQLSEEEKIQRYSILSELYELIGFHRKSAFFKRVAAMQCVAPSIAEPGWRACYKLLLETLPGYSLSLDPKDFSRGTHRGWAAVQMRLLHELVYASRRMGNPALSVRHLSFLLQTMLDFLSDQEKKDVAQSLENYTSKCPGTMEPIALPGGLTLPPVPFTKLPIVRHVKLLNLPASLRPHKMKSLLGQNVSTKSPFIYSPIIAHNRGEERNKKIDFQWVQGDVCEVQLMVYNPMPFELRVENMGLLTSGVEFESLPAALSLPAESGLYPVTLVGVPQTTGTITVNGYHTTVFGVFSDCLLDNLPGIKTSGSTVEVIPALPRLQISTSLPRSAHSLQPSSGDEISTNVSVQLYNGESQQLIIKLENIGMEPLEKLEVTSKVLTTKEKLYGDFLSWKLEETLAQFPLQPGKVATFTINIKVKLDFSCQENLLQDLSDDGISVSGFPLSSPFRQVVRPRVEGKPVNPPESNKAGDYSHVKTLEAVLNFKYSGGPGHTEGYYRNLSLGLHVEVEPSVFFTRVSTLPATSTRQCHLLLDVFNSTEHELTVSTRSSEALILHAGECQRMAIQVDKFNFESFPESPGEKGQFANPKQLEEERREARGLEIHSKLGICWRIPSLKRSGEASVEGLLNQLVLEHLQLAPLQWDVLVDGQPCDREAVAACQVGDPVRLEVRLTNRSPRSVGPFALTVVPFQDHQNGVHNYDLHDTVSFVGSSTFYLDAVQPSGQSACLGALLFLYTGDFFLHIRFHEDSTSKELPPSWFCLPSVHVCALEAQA
binder,measurement,value
B1,binding result,no binding
